For one assay, the target named is trcb_xenla fbxw1 (UniProt Q91854).
The target in the next assay is plk1_xenla plk1 (UniProt P70032).

These results are taken from IntAct's records for PubMed 17986610.

Cytoplasmic polyadenylation element-binding protein 1-A (Xenopus laevis (African clawed frog)), Q91572 G192A, sequence (Q91572 whole entry G192A): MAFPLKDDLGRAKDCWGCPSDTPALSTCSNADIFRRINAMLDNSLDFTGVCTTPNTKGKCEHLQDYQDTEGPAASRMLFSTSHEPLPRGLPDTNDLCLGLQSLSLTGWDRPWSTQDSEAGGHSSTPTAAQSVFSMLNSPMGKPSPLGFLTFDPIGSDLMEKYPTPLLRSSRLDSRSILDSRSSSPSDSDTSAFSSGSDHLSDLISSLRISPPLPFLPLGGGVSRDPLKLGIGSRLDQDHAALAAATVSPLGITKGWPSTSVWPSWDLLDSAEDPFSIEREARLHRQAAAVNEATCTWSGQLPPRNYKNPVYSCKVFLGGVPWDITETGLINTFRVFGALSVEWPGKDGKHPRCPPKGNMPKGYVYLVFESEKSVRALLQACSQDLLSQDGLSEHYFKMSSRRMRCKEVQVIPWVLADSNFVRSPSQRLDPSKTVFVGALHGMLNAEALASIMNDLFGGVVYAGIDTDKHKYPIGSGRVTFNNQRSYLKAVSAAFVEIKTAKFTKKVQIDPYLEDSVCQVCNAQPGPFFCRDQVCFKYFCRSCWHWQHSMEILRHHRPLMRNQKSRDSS
trcb_xenla fbxw1, sequence (Q91854 whole entry): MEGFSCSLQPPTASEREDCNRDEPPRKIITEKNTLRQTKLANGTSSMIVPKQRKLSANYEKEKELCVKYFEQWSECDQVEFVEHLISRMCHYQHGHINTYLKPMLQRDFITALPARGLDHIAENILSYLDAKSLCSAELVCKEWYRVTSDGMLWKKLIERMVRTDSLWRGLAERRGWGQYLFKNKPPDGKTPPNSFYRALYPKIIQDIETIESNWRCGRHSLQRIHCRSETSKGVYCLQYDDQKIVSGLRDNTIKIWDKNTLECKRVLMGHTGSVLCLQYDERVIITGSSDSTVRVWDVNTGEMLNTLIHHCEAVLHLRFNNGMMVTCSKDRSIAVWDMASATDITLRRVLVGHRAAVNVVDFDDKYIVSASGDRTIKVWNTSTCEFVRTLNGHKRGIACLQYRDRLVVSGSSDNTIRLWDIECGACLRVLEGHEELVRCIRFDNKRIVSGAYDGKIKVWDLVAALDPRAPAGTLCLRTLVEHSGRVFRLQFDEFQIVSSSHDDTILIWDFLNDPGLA
Cytoplasmic polyadenylation element-binding protein 1-A (Xenopus laevis (African clawed frog)), Q91572 T125A, sequence (Q91572 whole entry T125A): as the sequence (Q91572 whole entry G192A) above, with T125A, A192G counted along it
plk1_xenla plk1, sequence (P70032 whole entry): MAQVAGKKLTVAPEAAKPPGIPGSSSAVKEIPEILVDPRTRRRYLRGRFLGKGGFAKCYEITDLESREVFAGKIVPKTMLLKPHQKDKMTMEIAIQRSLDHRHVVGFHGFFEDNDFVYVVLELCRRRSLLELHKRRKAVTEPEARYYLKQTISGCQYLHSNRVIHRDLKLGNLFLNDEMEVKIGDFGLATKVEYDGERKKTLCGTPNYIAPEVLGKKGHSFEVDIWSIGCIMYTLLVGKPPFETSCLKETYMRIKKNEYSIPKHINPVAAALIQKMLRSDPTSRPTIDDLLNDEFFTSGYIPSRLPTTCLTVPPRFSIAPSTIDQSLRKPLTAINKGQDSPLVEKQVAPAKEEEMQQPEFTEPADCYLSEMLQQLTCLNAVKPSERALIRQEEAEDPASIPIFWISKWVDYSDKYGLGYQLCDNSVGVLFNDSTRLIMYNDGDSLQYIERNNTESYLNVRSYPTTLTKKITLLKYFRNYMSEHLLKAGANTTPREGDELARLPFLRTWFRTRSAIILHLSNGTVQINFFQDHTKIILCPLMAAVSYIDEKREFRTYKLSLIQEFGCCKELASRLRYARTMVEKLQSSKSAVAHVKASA

Consider “Cytoplasmic polyadenylation element-binding protein 1-A (Xenopus laevis (African clawed frog)), Q91572 G192A”, for which, in the assay with trcb_xenla fbxw1, the “effect of a mutation on the interaction” value was “decreasing interaction”.

Take “Cytoplasmic polyadenylation element-binding protein 1-A (Xenopus laevis (African clawed frog)), Q91572 T125A”: in the assay with plk1_xenla plk1, the “effect of a mutation on the interaction” value was “decreasing interaction”.
